The results in this text go back to the RNAGym collection of RNA variant scans (doi:10.1073/pnas.2313332121).

B1: TPR 5TU (parent)
chain: GGAUCUUCUCGAUCUAACAAAAAAGACAAAUCUGCCACAAAGCUUGAGAGCAUCUUCGGAUGCAGAGGCGGCAGCCUUCGGUGGCGCGAUAGCGCCAACGUUCUCAACUAUGACACGCAAAACGCGUGCUCCGUUGAAUGGAGUUUAUCAUG

Variants at the floor of the assay were thinned out.

In the series the parent is B1. Kind of series: polymerase ribozyme fitness, log enrichment relative to wild type (log ratio); higher = more active; in vitro selection for triplet polymerase activity. A digest of the protocol:
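Mutant libraries of each subunit of a heterodimeric triplet polymerase ribozyme were built by PCR and transcribed. Each library went through one round of in vitro selection in triplicate: annealing with biotinylated primer, partner subunit and triplets, frozen incubation at −7 °C, gel excision of extended constructs, streptavidin-bead capture and RT-PCR. Input and output libraries were Illumina-sequenced; only genotypes with ≥10 input reads and ≥1 read per output were kept. Fitness is log2(genotype enrichment/wild-type enrichment), using inverse-variance-weighted replicate averages.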
Regarding GGAUCUUCUCGAUCUAACAAAAAAGACAAAUCUGCCACAAAGCUUGAGAGCAUCAUCGGAUGCAGAGGCGGCAGCCUUCGGUGGCGCGAUAGCGCCUACGUUCUCAACUAUGACACGCAAAACGCGUGCUCCGUUGAAUGGAGUUUAUCAUG [U55A A97U], the “polymerase ribozyme fitness (log ratio)” value was -0.916.
In the case of GGAUCUUCUCGAUCUAACAAAAAAGACAAAUCUGCCACAAAGCUUGAGAGCAUCAUCGGAUGCAGAGGCGGCAGCCUUCGGUGGCGCGAUAGCGCCCACGUUCUCAACUAUGACACGCAAAACGCGUGCUCCGUUGAAUGGAGUUUAUCAUG [U55A A97C] it was 0.466.
In the case of GGAUCUUCUCGAUCUAACAAAAAAGACAAAUCUGCCACAAAGCUUGAGAGCAUCAUCGGGUGCAGAGGCGGCAGCCUUCGGUGGCGCGAUAGCGCCAACGUUCUCAACUAUGACACGCAAAACGCGUGCUCCGUUGCAUGGAGUUUAUCAUG [U55A A60G A137C], the “polymerase ribozyme fitness (log ratio)” value was -3.
With GGAUCUUCUCGAUCUAACAAAAAAGACAAAUCUGCCACAAAGCUUGAGAGCAUUUUCGGAUGCAGAGGCGGCAGCCUUCGGUGGCGCGAUAGCGCCAACGUUCUCAACUAUGACACGCAAAACGCGUGCUCCGUUGAAUGGAGUUAAUCAUG [C54U U146A] the figure was -0.881; with GGAUCUUCUCGAUCUAACAAAAAAGACAAAUCUGCCACAAAGCUUGAGAGCAUUUUCGGAUGCAGAGGCGGCAGCCUUCGGUGGCGCGAUAGCGCCAACGUUCUCAACUAUGACACGCAAAACGCGUGCUCCGUUGAAUGGAGUUGAUCAUG [C54U U146G], -0.826.
As for GGAUCUUCUCGAUCUAACAAAAAAGACAAAUCUGCCACAAAGCUUGAGAGCAUUUUCGGAUGCAGAGGCGGCAGCCUUCGGAGGCGCGAUAGCGCCAACGUUCUUAACUAUGACACGCGAAACGCGUGCUCCGUUGAAUGGAGUUUAUCAUG [C54U U82A C105U A119G], the “polymerase ribozyme fitness (log ratio)” value came to 0.194.
In the case of GGAUCUUCUCGAUCUAACAAAAAAGACAAAUCUGCCACAAAGCUUGAGAGCAUCAUCGGAUGCAGAGGCGGCAGCCUUCGGUGGCGCGAUGGCGCCAACGUUCUCAACUAUGACACGCAAAACGCGUGCUCCGAUGAAUGGAGUUUAUCAUG [U55A A91G U134A], the “polymerase ribozyme fitness (log ratio)” value was -4.01.
With GGAUCUUCUCGAUCUAACAAAAAAGACAAAUCUGCCACAAAGCUUGAGAGCAUCAUCGGAUGCCGAGGCGGCAGCCUUCGGUGGCGCGAUAGCGCCAACGUUCUCAACUAUGACACGCAAAACGCGUGCUCCGUUGAAUGGAGUUUAUCAUG [U55A A64C] the figure was at most -4.2; with GGAUCUUCUCGAUCUAACAAAAAAGACAAAUCUGCCACAAAGCUUGAGAGCAUUUUCGGAUGCAGAGGCGGCAGCCUUCGGGGGCGCGAUAGCGACAACGUUCUCAACUAUGACACGCGAAACGCGUGCUCCGUUGAAUGGAGUUUAUCAUG [C54U U82G C95A A119G], -2.04; with GGAUCUUCUCGAUCUAACAAAAAAGACAAAUCUGCCACAAAGCUUGAGAGCAUCAUCGGAUGCAGAGGCGGCUGCCUUCGGUGGCGCGAUAGAGCCAACGUUCUCAACUAUGACACGCAAAUCGCGUGCUCCGUUGAAUGGAGUUUAUCAUG [U55A A73U C93A A122U], -3.55.
In the case of GGAUCUUCUCGAUCUAACAAAAAAGACAAAUCUGCCACAAAGCUUGAGAGCAUCAUCGGUUGCAGAGGCGGCAGCCUUCGGUGGCGCGAUAGCGCCAACGUUCUCAACUAUGACACGGCAAACGCGUGCUCCGUUGAAUGGAGUUUAUCAUG [U55A A60U C118G A119C] it was -0.427; in that of GGAUCUUCUCGAUCUAACAAAAAAGACAAAUCUGCCACAAAGCUUGAGAGCAUCAUCGGAUGCAGAGGCGGCGGCCUUCGGUGGCGCGAUAGCGCCAACGUUCUCAACUAUGACACGCAAAACGCGUGCUCCGUUGAAUGGAGUUUAUCAUG [U55A A73G], -0.446; in that of GGAUCUUCUCGAUCUAACAAAAAAGACAAAUCUGCCACAAAGCUUGAGAGCAUUUUCGGAUGCAGAGGCGGCAGCCUACGGUGGCUCGAUAGCGCCAACGUUCCAAACUAUGACACGCAAAACGCGUGCGCAGUUAAAUGGAGUUUAUCAUG [C54U U78A G86U U104C C105A U130G C132A G136A], at most -4.2.
In the case of GGAUCUUCUCGAUCUAACAAAAAAGACAAAUCUGCCACAAAGCUUGAGAGCAUUUUCGGAUGCAGAGGCGGCAGCCUUCGGUGGCGCGAUAGCGCCAACGUUCUCAACUAUGACACGCAAAACGCGUGCUCCGUUGAAUGGAGUUUAACAUG [C54U U148A] it was -3.74; in that of GGAUCUUCUCGAUCUAACAAAAAAGACAAAUCUGCCACAAAGCUUGAGAGCAUCAUCGGAUGCAGAGGCGGCAGCCUUCGGUGGCGCGUUAGCGCCAACGUGCUCAACUAUGACACGCAAAACGCGUGCUCCGUUGAAUGGAGUUUAUCAUG [U55A A89U U102G], at most -4.2.
Take GGAUCUUCUCGAUCUAACAAAAAAGACAAAUCUGCCACAAAGCUUGAGAGCAUUUUCGGAUGCAGAGGCGGCAGCCUUCGGUGGCGCGAUAGCGCCAACGGUCUCAACUAUGACACGCAAAACGCGUGCUCCGUUGAAUGGAGUUUAUCAUG [C54U U101G]: the “polymerase ribozyme fitness (log ratio)” value is -0.483.
In the case of GGAUCUUCUCGAUCUAACAAAAAAGACAAAUCUGCCACAAAGCUUGAGAGCAUCAUCGGAUGCAGAGGCGGCUGUCUUCGGUGGCGCGAUAGUGCCAACAUUCUCAACUAUGACACGCAAAACGCGUGCUCCGUUGAAAGGAGGUUAUCAUG [U55A A73U C75U C93U G100A U139A U144G] it was at most -4.2.
For GGAUCUUCUCGAUCUAACAAAAAAGACAAAUCUGCCACAAAGCUUGAGAGCAUUUUCGGAUGCAGAGGCGGCAGCCUUCGGCGGCGCGAUAGCGACAACGUUCUCAACUAUGACACGCAAAACGCGUGCUCCGUUGAAUGUAGUUUAUCAUG [C54U U82C C95A G141U], the “polymerase ribozyme fitness (log ratio)” value was -2.99.
With GGAUCUUCUCGAUCUAACAAAAAAGACAAAUCUGCCACAAAGCUUGAGAGCAUUUUCGGAUGCAGAGGCGGCAGCCUUCGGUGGCGCGAUAGCGCCAACGUUCUCAACUAUGACACGCAAAACGCGUGCGCCGUUGAAUGGAGUUUAUCAUG [C54U U130G] the figure was -3.73.
